Substitutions are numbered along the chain they refer to. Values belong to the binder of their own block, whether it stands above or below them.
Molecular target: human EGF receptor 1 (EGFR) as used in the SPR rate analysis (UniProt P00533 25-645, limits assumed)
Experiment: SPR rate analysis of scFv

Ka: 2.61e+07 M⁻¹
koff: 0.00542 s⁻¹
kon: 141000 M⁻¹ s⁻¹
B1: h528scFv, single-chain antibody of the humanized anti-human EGF receptor 1 (Her1) antibody 528 before lysine substitution (scFv)
scFv: QVQLVQSGAEVKKPGASVKVSCKASGYTFTSYWMHWVRQAPGQGLEWMGNIYPGSGGTNYAEKFKNRVTMTRDTSISTAYMELSRLRSDDTAVYYCARSGGPYFFDYWGQGTLVTVSSAGGGGSDIVMTQSPLSLPVTPGEPASISCRSSQNIVHNNGITYLEWYLQKPGQSPQLLIYKVSDRFSGVPDRFSGSGSGTDFTLKISRVEAEDVGVYYCFQGSHIPPTFGQGTKVEIKRAAAAEQKLISEEDLNLGGGMRGSHHHHHH
notes: also called PC

Ka: 8.34e+06 M⁻¹
koff: 0.00853 s⁻¹
kon: 71100 M⁻¹ s⁻¹
B4: lysine-substituted single-chain antibody "LK" containing VH0K and VL1K (L108 re-replaced with lysine) (scFv)
scFv: QVQLVQSGAEVAEPGASVQVSCAASGYTFTSYWMHWVRQAPGQGLEWMGNIYPGSGGTNYAEEFQNRVTMTRDTSISTAYMELSRLRSDDTAVYYCARSGGPYFFDYWGQGTLVTVSSGGGGSGGGGSGGGGSDIVMTQSPLSLPVTPGEPASISCRSSQNIVHNNGITYLEWYLQRPGQSPQLLIYQVSDRFSGVPDRFSGSGSGTDFTLTISRVEAEDVGVYYCFQGSHIPPTFGQGTKVEIERHHHHHH
notes: Expressed in E. coli; also called VH0K VL1K

The next lines start with the binder.

B2: lysine-substituted single-chain antibody "OK" containing VH0K and VL0K (all lysine residues replaced) (scFv)
scFv: B4 scFv with K241E
notes: Expressed in E. coli; also called VH0K VL0K
Ka: 7.32e+06 M⁻¹
koff: 0.00824 s⁻¹
kon: 60300 M⁻¹ s⁻¹

B3: lysine-substituted single-chain antibody "HK" containing VH1K and VL0K (H19 re-replaced with lysine) (scFv)
scFv: B4 scFv with Q19K, K241E
notes: Expressed in E. coli; also called VH1K VL0K
Ka: 8.82e+06 M⁻¹
koff: 0.00805 s⁻¹
kon: 71000 M⁻¹ s⁻¹

Reference: patent US20150322156A1 (TOHOKU UNIVERSITY, published 2015)
